Results on 41 sequences are retold here after the nanobody polyreactivity screen of Harvey et al. (2022).

The data set in a line: yeast display, Sf9 membrane polyspecificity reagent, FACS + sequencing; frameworks hold sequencing errors. The method in brief:
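Galactose-induced (36–48 hours) yeast carrying a synthetic nanobody display library were exposed to 10% biotinylated, detergent-solubilized Sf9 membrane reagent at 4 °C for 1 hour. FACS followed streptavidin microbead enrichment, using low and high (top ~1%) gates for expression (anti-HA) and reagent binding (streptavidin). Colony PCR, MiSeq 2 × 250 sequencing and CDR-length filtering followed. Labels for polyreactivity reflect the gate of origin.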
“QVQLVESGGGLVQAGGSLRLSCAASGSIFNQYAMGWYRQAPGKERELVARIRGSTGTTYYADSVKGRFTISRDNAKNTVYLQMNSLKPEDTAVYYCNAARYQGRSRFDYWGQGTQVTVSS”: the “polyreactivity (PSR sort gate)” value was “high polyreactivity”. On to “QVQLVESGGGLVQAGGSLRLSCAASGSIFNRNAMGWYRQAPGKERELVAAITGRGGSTYYADSVKGRFTISRDNAKNTVYLQMDSLKPEDTAVYYCAAETLAPRAYYYWGQGTQVTVSS”, for which the “polyreactivity (PSR sort gate)” value is “low polyreactivity”. The entry for “QVQLVESGGGLVQAGGSLRLSCAASGSIFNRYAMGWYRQAPGKERELVAVIRWRDGSTYYADSVKGRFTISRDNAKNTVYLQMNSLKPEDTAVYYCAAVYWGEEYEYWGQGTQVTVSS” is “low polyreactivity”. Take “QVQLVESGGGLVQAGGSLRLSCAASGSIFNRYAMRWYRQAPGKERALVAAISRSGSTYYADSVKGRFTISRDNAKNTVYLQMNSLKPEDTAVYYCNARGTTHHTSYDYWGQGTQVTVSS”: the “polyreactivity (PSR sort gate)” value is recorded as “low polyreactivity”. Regarding “QVQLVESGGGLVQAGGSLRLSCAASGSIFNSNAMGWYRQAPGKERELVAAITGSGGRTYYADSVKGRFTISRDNAKNTVYLQMNSLKPEDTAVYYCNAVTYSRRYAYYYWGQGTQVTVSS”, the “polyreactivity (PSR sort gate)” value is “high polyreactivity”. Turning to “QVQLVESGGGLVQAGGSLRLSCAASGSIFNSYAMGWYRQAPGKERELVAAISIRGTRTYYADSVKGRFTISRDNAKNTVYLQMNSLKPEDTAVYYCAADASYTEGMDYWGQGTQVTVSS”, the “polyreactivity (PSR sort gate)” value was “high polyreactivity”.

For the sequence “QVQLVESGGGLVQAGGSLRLSCAASGSIFNTYAMGWYRQAPGKEREFVASISRSGGSTRYADSVKGRFTISRDNAKNTVYLQMNSLIPEDTAVYYCAASWLGASGIRYDYWGQGTQVTVSS”, the “polyreactivity (PSR sort gate)” value is reported as “high polyreactivity”. Regarding “QVQLVESGGGLVQAGGSLRLSCAASGSIFNTYVMGWYTQAPGKERELVAAITSSGGRTYYADSVKGRFTISRDNAKNTVYLQMNSLNPEDTAVYYCNTAQRWVGRNDYWGQGTQVTVSS”, the “polyreactivity (PSR sort gate)” value is on record as “high polyreactivity”. As to “QVQLVESGGGLVQAGGSLRLSCAASGSIFNVYVMGWYRQAPGKERELVASITWTTGSTYADSVKGRFTISRDNAKNSVYFQMNSLKPEDTAVYYCNAEFPEDTSDDYWGQGTQVNVSS”, the “polyreactivity (PSR sort gate)” value is recorded as “low polyreactivity”. “QVQLVESGGGLVQAGGSLRLSCAASGSIFNYNAMGWYRQAPGKERELVAAMSGSGGRTYYADSVKGRFTISRDNAKYTVYLQMNSLKPEDTAVYYCATYVRITPYEYWGQGTQVTVSS”: the “polyreactivity (PSR sort gate)” value is recorded as “high polyreactivity”. Under “QVQLVESGGGLVQAGGSLRLSCAASGSIFNYYAMGWSRQAPGKERELVAAITTSGGNTYYADSVKGRFTISRDNAKNNVYLQMNILKPEDTAVYYCNADYRQITSYGFDYWGQGSQVTVSS” stands “low polyreactivity”. In the case of “QVQLVESGGGLVQAGGSLRLSCAASGSIFNYYAMGWYRPAPGKERELVAGITTSGGSTYYADSVKGRFTISRDNAKNTVYLQMNSLKPEDTAVYYCAAYDYISSTYFLDDYWGQGTQVTVSS”, the “polyreactivity (PSR sort gate)” value is “low polyreactivity”.

On to “QVQLVESGGGLVQAGGSLRLSCAASGSIFNYYAMGWYRQAPGKEREFVADISGSGSSTYYADSVKGRFTISRDNAKNTVYLQMNSLKPEDTAVYYCNAEYYWGVGYYPYSDYGYWGQGTQVTVSS”, for which the “polyreactivity (PSR sort gate)” value was “low polyreactivity”.

Take “QVQLVESGGGLVQAGGSLRLSCAASGSIFNYYAMGWYRQAPGKERELVAAISWNGGRTYYADSVKGRFTISRDNAKNTVYLQMNSLKPEDTAVYYCNAYPAGYVAHTYDYWGQGTQVTVSS”: the “polyreactivity (PSR sort gate)” value was “high polyreactivity”. The entry for “QVQLVESGGGLVQAGGSLRLSCAASGSIFNYYAMGWYRQAPGKERELVAGITSVGSTYYADSVKGRFTISRDNAKNTVYLQMNSLKPEDTAVYYCAAGYWYGMYYWGQGTQVTVSS” is “high polyreactivity”.

Regarding “QVQLVESGGGLVQAGGSLRLSCAASGSIFNYYAMGWYRQAPGKESELVAGITTSGGSTYYADSVKGRFTISRDNAKNTVYLQMNSLKPEDTAVYYCAAYDYISSTYFLYDYWGQGTQVTVSS”, the “polyreactivity (PSR sort gate)” value is “low polyreactivity”. Consider “QVQLVESGGGLVQAGGSLRLSCAASGSIFNYYTMGWYRQAPGKRELVAAITWSGDSTYYADSVKGRFTISRDNAKNTVYLQMNSLKPEDTAVYYCAAAQARRYYWGQGTQVTVSS”, for which the “polyreactivity (PSR sort gate)” value is given as “high polyreactivity”. Regarding “QVQLVESGGGLVQAGGSLRLSCAASGSIFPAYAMGWYRQAPGKERELVAAITRGGSTDYADSVKGRFTISRDNAKNTVYLQMNSLKPEDTAVYYCATGDGPSLFDYWGQGTQVTVSS”, the “polyreactivity (PSR sort gate)” value is listed as “low polyreactivity”.

On to “QVQLVESGGGLVQAGGSLRLSCAASGSIFPDNAMGRYRQAAGKVRELVAAIDKGTGSTNYADSVKGRFTISRDNAKNSVYLQINSVKPEDTAGYYCDKGWLSPRGGAWYDDYWGQGTEVTVSS”, for which the “polyreactivity (PSR sort gate)” value is “low polyreactivity”. Regarding “QVQLVESGGGLVQAGGSLRLSCAASGSIFPDNAMGWDRQAPGKERELVAAITSGGGTYYADSVKGRFTISRDNAKNTVYLQMNSLKPEDTAVYYCNTEDYTQYEPGYYPPNYYWGQGTQVTVSS”, the “polyreactivity (PSR sort gate)” value is recorded as “low polyreactivity”. Take “QVQLVESGGGLVQAGGSLRLSCAASGSIFPDNAMGWYRQAPGKERELVAAITRGGSTYYADSVKGRFTISRDNAKNTVYLQMNSLKPEDTAVYYCAARRRYLWSYDYWGQGTQVTVSS”: the “polyreactivity (PSR sort gate)” value is “high polyreactivity”. For the sequence “QVQLVESGGGLVQAGGSLRLSCAASGSIFPDNAMRWYRQAPGKERELVAAITRGGSTYYADSVKGRFTISRDNAKNTVYLQMNSLKPEDTAVYYCAARRRYLWSYDYWGQGTQVTVSS”, the “polyreactivity (PSR sort gate)” value is given as “high polyreactivity”. Consider “QVQLVESGGGLVQAGGSLRLSCAASGSIFPDYAMGGYRQAPGKERELVAAITWSGGNTYYADSVKGRFTISRDNAKNTVYLQMNSLKPEDTAVYYCAADISLHWYYYRRYNYWGQGTQVTVSS”, for which the “polyreactivity (PSR sort gate)” value was “low polyreactivity”. Under “QVQLVESGGGLVQAGGSLRLSCAASGSIFPENVMGWYRQAPGKERELVAAISWSGGSTYYADSVKGRFTISRDNAKNTVYLQMNSLKPEVTAVYYCNRVPSWRIDYDYWGQGTQVTVSS” stands “low polyreactivity”.

Regarding “QVQLVESGGGLVQAGGSLRLSCAASGSIFPGNGMGWYRQAPGKEMELVASITSGARTNYADSVKGRFTISRDNAKNTVYFPMNSLIPEDTAVYYCAADIKSSIRRAYDYWGQGSQVTVSS”, the “polyreactivity (PSR sort gate)” value is “high polyreactivity”.

Take “QVQLVESGGGLVQAGGSLRLSCAASGSIFPGYAMGWYRQAPGKERELVAAITFSGGSTYYADSVKGRFTISRDNAKNTVYLLMISLKPEDTAVYYCAAPGWYGGYPSFYYWGQGTQVTVSS”: the “polyreactivity (PSR sort gate)” value is on record as “low polyreactivity”. Turning to “QVQLVESGGGLVQAGGSLRLSCAASGSIFPGYAMGWYRQAPGKERELVATITWSGGSTYYADSVKGRFTISRDNAKNTVYLQMNSLKPEDTAVYYCAADGVDRYLRTISYLYGYWGQGTQVTVSS”, the “polyreactivity (PSR sort gate)” value was “low polyreactivity”. For “QVQLVESGGGLVQAGGSLRLSCAASGSIFPGYAMGWYRQAPGKERELVATITWSGGSTYYADSVKGRFTISRDNAMNTVYLQMNSLKPEDTAVYYCNADSNWYYQLNYYGLYDYWGQGTQVTVSS”, the “polyreactivity (PSR sort gate)” value was “low polyreactivity”.

With “QVQLVESGGGLVQAGGSLRLSCAASGSIFPGYAMGWYRQAPGKERELVATITYSDGSTYYADSVKRRFTISRDIATNTVFLQMNSLKPEDTAGYYCAVTYWWYYGYDYWGQGTQVTVSS”, the “polyreactivity (PSR sort gate)” value is “low polyreactivity”. With “QVQLVESGGGLVQAGGSLRLSCAASGSIFPHNAMGWYRQAPGKERELVAAISWRDVITYYADSVKGRFTISRDNAKNTVYLQMNSLKPEDTAVYYCAAELRVYGVDYEYWGQGTQVTVSS”, the “polyreactivity (PSR sort gate)” value is “high polyreactivity”. Turning to “QVQLVESGGGLVQAGGSLRLSCAASGSIFPHYAMGWNRQAPGKERELVAAISSGGRTYYADSVKGRFTISRDNAKNTVYLQMNSLKPEDTAVYYCAARRIARKGYGYWGQGTQVTVSS”, the “polyreactivity (PSR sort gate)” value is “high polyreactivity”. In the case of “QVQLVESGGGLVQAGGSLRLSCAASGSIFPIYAMGWYRQAPGKERELVAAINRSGGSTYYADSGKGRFTISRDHAKTTVYLQMNSLKPEETAVYDCNADYGYHNQLFRGYYGWSSDHWGQGTQVTVSS”, the “polyreactivity (PSR sort gate)” value is given as “low polyreactivity”.

With “QVQLVESGGGLVQAGGSLRLSCAASGSIFPLYAMGWYRQAPGKERELVADITVSGGSTYYADSVKGRFTISRDNAKNTVYLQMNSLKPEDTAVYYCAKDNGPWFAYDYWGQGTQVTVSS”, the “polyreactivity (PSR sort gate)” value is “low polyreactivity”. As for “QVQLVESGGGLVQAGGSLRLSCAASGSIFPQYAMGWYRQAPGKERELVAAITWSGSRTRYADSVKGRFTISRDNAKNTVYLQMNSLKPEDTAVYYCNAVNYRSSRDSGYWGQGTQVTVSS”, the “polyreactivity (PSR sort gate)” value is “high polyreactivity”. As for “QVQLVESGGGLVQAGGSLRLSCAASGSIFPQYAMGWYRQAPGKERELVASITDSGGRTYYADSVKGRFTISRDNAKNTVYLQMHSLKPEDTAVYYCAAVSLWWSDYYFVEYDYWGQGTQVTVSS”, the “polyreactivity (PSR sort gate)” value is on record as “high polyreactivity”. As to “QVQLVESGGGLVQAGGSLRLSCAASGSIFPQYAMGWYRQAPGTERELVDAITWSGSRTRYADSVKGRFTISRDNAKNTVYLQMNSLKPEDTAVYYCAARFNGQTYYYCGQGTQVTVSS”, the “polyreactivity (PSR sort gate)” value is “high polyreactivity”.

With “QVQLVESGGGLVQAGGSLRLSCAASGSIFPRYAMGWYRQAPGKEREFVAAITGSGSSTYYADSVKGRFTISRDNAKNTVYLQMNSLKPEDTAVYYCAARKARPPFPHPFDYYWGQGTQVTVSS”, the “polyreactivity (PSR sort gate)” value was “low polyreactivity”. On to “QVQLVESGGGLVQAGGSLRLSCAASGSIFPSNAMGWYRQAPGKERELVAGITRGGSTNYADSVKGRFTISRDNAKNTVYLQMNSLKPEDTAVYYCAADSGFDTAPYDYWGQGTQVTVSS”, for which the “polyreactivity (PSR sort gate)” value is on record as “low polyreactivity”. For the sequence “QVQLVESGGGLVQAGGSLRLSCAASGSIFPSNVMGSYRQAPGKERELVAAISNTGSTNYADSVKGRFTISRDNAKNTVYLQMNSLKPEDTAVYYCNADASYGFWSLLDYDYWGQGTQVTVSS”, the “polyreactivity (PSR sort gate)” value is “low polyreactivity”. Consider “QVQLVESGGGLVQAGGSLRLSCAASGSIFPSYAMGWYRQAPGKERELVATISGSGTRTYYADSVKGRFTISRDNAKNTVYVQMNSLKPEDTAVYDCARLPPGDMDYWGQGTQVTVSS”, for which the “polyreactivity (PSR sort gate)” value is “low polyreactivity”. Under “QVQLVESGGGLVQAGGSLRLSCAASGSIFPSYAMGWYRQAPGQERELVATIGRGGTTNYADSVKGRFTISRDNAKNTVYLQMNSLKPEDTAVYYCNAERIWRYKYGYDYWGQGTQVNVSS” stands “high polyreactivity”.
